The results in this text go back to doi:10.1101/2025.08.27.672771 (bioRxiv, 2025).

This data set deals with the molecule itself. Put plainly: SEC. In general terms: SEC sorts molecules by how far they enter the pores of the column.

B1: human TRPC3 (hTRPC3) channel, GFP-MBP-tagged (natural protein, UniProt Q13507 86-921, looked up)
chain: MREKGRRQAVRGPAFMFNDRGTSLTAEEERFLDAAEYGNIPVVRKMLEESKTLNVNCVDYMGQNALQLAVGNEHLEVTELLLKKENLARIGDALLLAISKGYVRIVEAILNHPGFAASKRLTLSPCEQELQDDDFYAYDEDGTRFSPDITPIILAAHCQKYEVVHMLLMKGARIERPHDYFCKCGDCMEKQRHDSFSHSRSRINAYKGLASPAYLSLSSEDPVLTALELSNELAKLANIEKEFKNDYRKLSMQCKDFVVGVLDLCRDSEEVEAILNGDLESAEPLEVHRHKASLSRVKLAIKYEVKKFVAHPNCQQQLLTIWYENLSGLREQTIAIKCLVVLVVALGLPFLAIGYWIAPCSRLGKILRSPFMKFVAHAASFIIFLGLLVFNASDRFEGITTLPNITVTDYPKQIFRVKTTQFTWTEMLIMVWVLGMMWSECKELWLEGPREYILQLWNVLDFGMLSIFIAAFTARFLAFLQATKAQQYVDSYVQESDLSEVTLPPEIQYFTYARDKWLPSDPQIISEGLYAIAVVLSFSRIAYILPANESFGPLQISLGRTVKDIFKFMVLFIMVFFAFMIGMFILYSYYLGAKVNAAFTTVEESFKTLFWSIFGLSEVTSVVLKYDHKFIENIGYVLYGIYNVTMVVVLLNMLIAMINSSYQEIEDDSDVEWKFARSKLWLSYFDDGKTLPPPFSLVPSPKSFVYFIMRIVNFPKCRRRRLQKDIEMGMGNSKSRLNLFTQSNSRVFESHSFNSILNQPTRYQQIMKRLIKRYVLKAQVDKENDEVNEGELKEIKQDISSLRYELLEDKSQATEELAILIHKLSEKLNPSMLRCE
Consider B1, for which the stoichiometry N (commonly the number of molecules, sites or subunits per partner or assembly) is 4.
